From article PMC9967152 (International Journal of Molecular Sciences, 2023)
Where a SMILES comes first, the peptide text is derived from it. [ ]: non-standard residue; d: D form. The star is where a group is joined. Daunorubicin(13-NOCH2CO) = COc1cccc2c1C(=O)c1c(O)c3c(c(O)c1C2=O)C[C@@](O)(C(C)=NOCC(=O)*)C[C@@H]3O[C@H]1C[C@H](N)[C@H](O)[C@H](C)O1; Sta = CC(C)C[C@H](N)[C@@H](O)CC(=O)O

How the values were obtained:
[1] = system: PC-3 human prostatic adenocarcinoma xenograft in NOD-SCID mice; test: In vivo tumour growth inhibition, subcutaneous PC-3 xenograft; set-up: species or system mouse; settings: 10 mg/kg on Dau content i.p. every 5th day, n = 8
Protocol: The testing of the antitumour conjugates was carried out in a murine xenograft model. It was established by inoculating subcutaneously 100 µL of cell suspension of PC-3 prostate cancer cells with a concentration of 2 × 10^7 cells/mL.
Once the tumour volume reached 60 mm^3, mice were randomised and assigned to different groups for each treatment, respectively 0.9% saline as control, free daunorubicin, L5, and L6. Each group consisted of eight mice. Peptide–drug conjugates were injected intraperitoneally every 5th day, five times in total (daunorubicin dosage of 10 mg/kg for each treatment). In the case of free daunorubicin, two treatments were administered at the same time points as the first two treatments with conjugates, with a dosage of 1 mg/kg, the maximum tolerated dose (MTD). Weight and tumour size of mice were monitored throughout the whole experiment, two times per week. On day 33, mice were euthanized, and primary tumour, heart, lung, liver and spleen were harvested and stored in 4% formalin (Molar Chemicals, Halásztelek, Hungary). After 2–3 days of incubation in formalin, tissue samples were examined macroscopically. Organs and primary tumours from the different treatment groups were weighed and inspected under a stereomicroscope to see any occurrent changes in morphology compared to the controls.

[2] = Stability in incomplete (serum-free) DMEM; type: in vitro ADME; settings: 25 µM, 37 °C, 600 rpm, LC–MS, n = 2
Protocol: The conjugates were incubated in incomplete DMEM for 3 h (similarly to the internalisation studies) or in 2.5% FBS containing DMEM for 24 h (conditions for the MTT assay). […] No significant loss of L1 and L5 (<20%) or L6 (<30%) was observed after 3 h (see Supplementary Materials, Figure S17).
DMSO stock solutions of the conjugates (2.5 mM) were diluted in DMEM free from or containing 2.5% FBS, to a final concentration of 25 μM. The mixture was incubated and stirred at 37 °C, 600 rpm, and 30 µL aliquots were collected after 0 min, 0.5, 1, 2, 4, 8 and 24 h, in duplicates. Then, to each sample, 90 µL of 0.1% formic acid containing MeCN was added and the samples were frozen at −25 °C for ≥30 min to aid protein precipitation. Large FBS components were removed by centrifugation (15 min, 5000 g, 4 °C). Aliquots of 50 µL supernatant were diluted with an equal volume of ddH2O + 0.1% formic acid and analysed by LC–MS. Control measurements were performed in the same manner (25 μM bioconjugate in 100% ddH2O).

[3] = Stability in mouse plasma; type: in vitro ADME; settings: 37 °C, HPLC-MS
Protocol: Due to their low IC50 values and internalisation on the tested cell lines, conjugates L1, L5 and L6 were chosen for investigation of their stability in mouse plasma, as potential candidates for in vivo studies. They were incubated at a concentration of 10 µM, with mouse plasma for 24 h at 37 °C. Samples were collected at 0 h, 30 min, 1 h, 2 h, 4 h, 8 h and 24 h and analysed by HPLC-MS. […] Furthermore, after 2 h, L1 starts to release the toxic metabolite Dau=Aoa-Leu-OH, whereas this happens only after 24 h for L5 and L6, in a considerably low amount (see Supplementary Materials, Figures S18–S20).
The conjugates were dissolved in ddH2O containing 10% DMSO (stock solution: 100 μM) and diluted with mouse plasma to a final concentration of 10 μM. The mixture was incubated and stirred at 37 °C, 600 rpm, and 30 µL aliquots were collected after 0 min, 0.5, 1, 2, 4, 8 and 24 h, in triplicates. Then, to each plasma sample, 90 µL of 0.1% formic acid containing MeCN was added, and the samples were frozen at −25 °C for ≥30 min to aid protein precipitation. Large plasma proteins were removed by centrifugation (15 min, 5000× g, 4 °C). Aliquots of 50 µL supernatant were diluted with an equal volume of ddH2O + 0.1% formic acid and analysed by LC–MS. Control measurements were performed in the same manner (10 μM bioconjugate in 100% ddH2O).

[4] = system: healthy NOD-SCID mice; test: In vivo chronic toxicity study in healthy mice; set-up: species or system mouse; settings: 20 mg/kg calculated on Dau content, every 5th day, four treatments, n = 3
Protocol: Based on the stability assay performed in murine plasma, we decided to investigate L5 and L6 in vivo. To determine the dosage for the tumour growth inhibition experiment, we performed a chronic toxicity study using healthy mice. PDCs were administered every 5th day in three different doses calculated on the Dau content: 5 mg/kg, 10 mg/kg, and 20 mg/kg (Figure 4A). […] When 10 mg/kg drug was applied, the fitness of mice was not affected more than that of mice that received 5 mg/kg.
The toxicity experiments were done in healthy NOD-SCID mice. Treatments were administered every 5th day. Three different concentrations were tested, 5 mg/kg, 10 mg/kg and 20 mg/kg, respectively. Each group consisted of three mice. Mouse weight was monitored five times per week.

COc1cccc2c1C(=O)c1c(O)c3c(c(O)c1C2=O)C[C@@](O)(C(C)=NOCC(=O)N[C@@H](CC(C)C)C(=O)N[C@@H](CCCNC(=N)N)C(=O)N[C@@H](CCCNC(=N)N)C(=O)N[C@@H](Cc1ccc(O)cc1)C(=O)N[C@H](Cc1ccccc1)C(=O)N[C@@H](CCC(N)=O)C(=O)N[C@@H](Cc1c[nH]c2ccccc12)C(=O)N[C@@H](C)C(=O)N[C@H](C(=O)NCC(=O)N[C@@H](Cc1c[nH]cn1)C(=O)N[C@@H](CC(C)C)[C@@H](O)CC(=O)N[C@@H](CC(C)C)C(N)=O)C(C)C)C[C@@H]3O[C@H]1C[C@H](N)[C@H](O)[C@H](C)O1 [L5, (Dau=Aoa)-LRRY-BBN[D-Phe6, Sta13, Leu14]] ({Daunorubicin(13-NOCH2CO)}-LRRY[dF]QWAVGH[Sta]L-NH2)
Toxicity during the tumour growth inhibition experiment [1]: lower toxicity compared to free daunorubicin | time to release of active metabolite Dau=Aoa-Leu-OH: < 30 min | Loss of conjugate after 3 h [2]: < 20% | Time after which release of the toxic metabolite Dau=Aoa-Leu-OH starts ([3]; 10 µM, for L5 and L6 in a considerably low amount): 24 h | remaining at 24 h, 10 μM ([3]; 600 rpm, n = 3, read-out: Intact conjugate after one day (24 h)): > 80% | Decrease in mouse weight [4]: 10–15%
